Test results: US20200270570A1

What was measured:
mouse Fz8 (mouse) [1] = biological target: T1, mouse Fz8 (mouse) (UniProt Q61091); experiment: FIG. 12A: L-Wnt3A incubated with Fz8 for 12 h RT, ultracentrifugation, western blot
T1 sequence (looked up): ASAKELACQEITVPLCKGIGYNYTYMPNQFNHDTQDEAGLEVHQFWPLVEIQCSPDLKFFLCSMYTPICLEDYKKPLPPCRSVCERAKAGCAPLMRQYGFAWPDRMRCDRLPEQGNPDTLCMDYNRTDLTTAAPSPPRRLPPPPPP

mouse Fz8 (mouse) [2] = biological target: T1, mouse Fz8 (mouse); experiment: FIG. 11A: preformed L-Wnt3A incubated with Fz8 6 h RT, ultracentrifugation, western blot
mouse Fz8 (mouse) [3] = biological target: T1, mouse Fz8 (mouse); experiment: FIG. 12A: preformed L-Wnt3A incubated with Fz8 (longer time course), ultracentrifugation, immunoblot
[4] = biological target: L-Wnt3A (Wnt3A reconstituted into liposomes) (human) (UniProt P56704); experiment: as above
Sequence of UniProt P56704 (P56704 19-352 limits assumed): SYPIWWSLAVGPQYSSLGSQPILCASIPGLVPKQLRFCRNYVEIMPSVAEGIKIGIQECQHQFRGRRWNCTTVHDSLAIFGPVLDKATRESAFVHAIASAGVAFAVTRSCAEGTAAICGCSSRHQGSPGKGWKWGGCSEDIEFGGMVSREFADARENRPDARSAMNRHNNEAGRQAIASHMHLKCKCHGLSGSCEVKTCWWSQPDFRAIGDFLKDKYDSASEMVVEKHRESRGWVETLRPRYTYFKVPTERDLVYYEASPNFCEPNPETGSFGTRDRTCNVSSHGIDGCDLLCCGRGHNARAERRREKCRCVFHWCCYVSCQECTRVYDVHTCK

[5] = biological target: L-Wnt3A (Wnt3A reconstituted into liposomes) (human) (UniProt P56704); experiment: FIG. 11A: preformed L-Wnt3A incubated with Fz8 6 h RT, ultracentrifugation, immunoblot

Substance	percent of Wnt3A in Fz8 rich supernatant (mouse Fz8 (mouse) [1])	percent of Wnt3A in liposomal pellet (not with Fz8) (mouse Fz8 (mouse) [2])	percent of Wnt3A in liposomal pellet (not with Fz8) (mouse Fz8 (mouse) [3])	percent of Fz8 in supernatant (not liposome-associated) [4]	percent of Fz8 in supernatant (not liposome-associated) [5]
L-Wnt3A (Wnt3A reconstituted into liposomes) (from UniProt P56704 19-352)	11%	100%	88.7%		
mouse Fz8 (from UniProt Q61091 28-173) (receptor)				94.5%	98.6%
